Experiment: soluble on expression in E. coli; label from the status in PepcDB or PDB records

Soluble on expression in E. coli, not soluble:
MGSDKIHHHHHHMEEVVKRLAEIRAMDARGEGGRLFTYLYETGDPGVKEVSLRAFEMFLDTNALDPTVFKSALFFERELVSFASSLAGGVEGVVGTVTYGGTESIILAAMAAREWYRSLGGSRTPGIVAPQTVHPSVRKAARYLGMRLSIAPVDPGSKRVDIDSLVSLVDDRTAMVVVSAPNYPYGTVDDVRSVAEALSSQRVWLHVDACVGGFILPFMRELGLYSGAFAFDVEGVYSVSMDLHKYGYSPKGASVLLFRDGSLKKHSIFADLRWPGYPFINTTVLSSRSVAPLAAAWAVTNYLGRRGYLELARKAVEARDEIMRGLESIGFRSLAPIESTILSVALDDPADTLRFHANMSRRGWILGLQPGVEGLAPPNIHLTISPIHKLVSPQFLGDARASSSEPLPKELEEAWRLLESRGPLELAGMIGRTQYDQVIIAWILSSIPPDLAEDLARELTVEVYRG
MGSDKIHHHHHHMEEYFNGLLKEVDQRMATTAPGMDGKEVIGVCREMVSYLKGKNRELKEYALAHPFAGDAKEILYFKYYKPALTGRLLYYYRVYQIESGCPACLRVAEPYYRKAMERAERMMERYLPFYQYYHSGATYRDSYYFLRAKGELSPESGSFVLDEEAEFSTGYDILAARLISVEMLLVHLSRRMERAAQGTETEAVPEKEHRWTNTKVAAILLVYGIHVTGSVDEGNAEIGELAALFEKHFHVDLGNVYHAFGRLRGQQNPTAFLDEMKERLLKKMRDMDSR
MGSDKIHHHHHHMEFLRNTWYAAGWSQDLAAGAMLGRTMLNEQLVLFRADDGTVSALSDICPHRFAPLHLGKIVDGCRIQCAYHALEFDGTGACVKNPHGKQKIPAAAKLQAYPVVEKHSLIWVWMGEQAAADPSVIPDFSMLDPDSGFQVSRRDWLHMDASYDLVVDNLMDLSHTAFLHDGILGSKYTIKADTSLEQTGETVKVTRLMPNVPVPGFFDLMFNRDGGIVDYWTEIRWNLPGCLMNNTGVTLPGAPRSEGTGVYGMHFLTPETDVSCWYHFAAVRQNPRTWGEPIDTEIKEKISDLRRYAFEEQDQWIIKAQQQTILRAKGNLQPVSLETDIGIERYKRILKAALVAERSGSTMAA
MGSDKIHHHHHHMEFMKQLGSCCQYCAYPLSDDTYLVCGQCVRKRPSFDSAYIAYRFEEPLRSLIHQFKYHNGLYLASFLKQLLLNALPKNALKPDCLIPVPMHPKRLKRRGFNQAGVLTRLLARQLNIPYDLYYCQKIINTASQANLDGEQRRKNLRHAFYVSAVTYEHVMIVDDLLTTGSTANEMAHTLKNAGVKRVDICCCARAVTKN
MGSDKIHHHHHHMEHISQLTAEIRDKAAYPDILVISRIFLPKEAVIGEYMYNRCLQDPERVIVLAASCSGDKVFDEGQQFPVYRWFYPRYWRSGFVGNILKPFVNIVCSFVLAIKLYFRYHYRYIEWGHGYDFPSLLLLSYLLPIRFFIYLHGNDFLCTLHNPVLRSLFKLTLKRAEGIVCNSSYTQDYLRTALRLDTPTYVINPVIRPEKFGNNVGSPSSLDDLRVRVRQAYNIPDSAIVILSIGRLVKHKAFDQVIDNIPLLLTFGVDVHYIICGEGPSESELKSLVHRLRVDKCVHFAGYVAERELAGYYAACDIFAMLTLLDSKPNNMEGFGMVYLEASYFGKPIIAPRLGGVLDTVQHEENGILVNPNSGYEVFQAFNRLCKDQQLREQLGRKGKELAKRRTLHRSLYKSEGKNPIL
MGSDKIHHHHHHMEHLHRKQITNTFTETFPGDLSMNNTTRQTPGVLYCSVLPTPVHHPQLLAWSADVAEMLGLESPVPEDVLILGGNTVNPTMKPYASCYAGHQFGNWAGQLGDGRAISLGFCSGKDSMEYELQLKGAGPTPYSRNSDGRAVLRSSLREYLMSEAMHYLGVPTTRALSLVSTGDAVLRDMFYNGHAAYEPGAVVLRVAPSFIRFGNFEILAERNNRDLSQQLCDWVITRYYPEIRGEDRVVQLFQAVAERTADMVVQWLRVGFVHGVMNTDNMSILGVTIDYGPYSFVDEYDARFTPNTTDLPGRRYAFGNQAAVAYWNLGRLANALAFLVPETDKLVAVLKNYQDVYETKYYTMMANKLGFDALREDDRLLIDSFEEMLRTVKPDMTMFYQLLIDLPADPGTAADVKQFFQSCFYTEADEALLHTCIAAYSKRIKTNTCSKEVSAEKMRAANPRFVLRNYILHEAIEKLEKGDDALLKKLEEYIKQPYSKNADEYFIKRPDWAAQKAGCSMLSCSS
MGSDKIHHHHHHMEKFKGALVVGALRLFALLPWRAVQGVGAGIGWLMWKLPNRSREVVRINLSKCFPELSETELEKLVGQSLMDIGRTLTESACAWIWPPEKSLRYIREVEGMEVLEEALASGDGLVGITSHLGNWEVLNHFYCSYAKPIIFYRPPKLKAVDELLKKQRVQLGNRVAPSTPEGILSVIKEVKKGGCVGIPADPEPARTAGLFVPYLGTTALISKFVPQLLSRGKARGVFFHAVRLPDGSGYKVILEAAPADMYDKDLEVSVAAMSRELAKYVRAYPSQYMWSMKRFKNRPDGEKKWY
MGSDKIHHHHHHMEKLNFGIPEWAFEFHGHKCPYMPMGYRAGSYALKIAGLEKEKDHRTYLLSEMSPEDMNGCFNDGAQAATGCTYGKGLFSLLGYGKLALILYRPGRKAIRVHVRNSFMDELSTRASDFFRYRKQGYEPSEIPAGAIDPVLEWISSLEDEEIFEYREIDGFTFEPVKKNGAKVRCDVCGEYTYEADAKLLNGKPVCKPDYYGKK
MGSDKIHHHHHHMEKQSDSYYISAVQAGDTESFAPLVERYSDMLYALLCRLLQDEEDAADLLQDTFVKAFRHISRFDGRSSFSTWIYRIAYNEAIDHLRRHKAYVTDRVEELPDVPDEDLEPSGEDPELLQQALDSLPAADKALLLMFYSDDLSVRDIAEVTGMSESNVKVKLHRLRTKLYKMMRK
MGSDKIHHHHHHMEKQVATSIFESLSSGLRLDVFRLLVKKGPDGMVAGEIANALDVPPANLSFHLKALSQARLVTVEQEGRFQRYRADIPLMLDLIAYLTDECCTGSPAKCVEKVAASNCAKELLPPPVTHSNESDNMNILFLCTGNSCRSILAEAVFNHLAPTGWKAMSAGSQPTGTVHPRSLALLAREGIDTNGLHSKSWDNLPQVPDVVITVCSNAAGETCPAYLGAVLRAHWGVDDPAHATGTEAEIEAAFTAAYRILRRRIEAFLALPLVELARDRTRLKAELDRIGALSA
MGSDKIHHHHHHMEKSIQDTIHGVIKLEDWMVEIVDTPQFQRLRRINQLGFANLVYPGANHTRFEHSLGVMHVTRILQERMGFDDVVVAAALLHDVGHAPFSHGSERLLEKYASYNHETISKVVRGELKDVLKNLGFRISEIEAIVTGKRRSVVNGEIDADRMDYLVRDSHYTGVAYGVFDIYRLIDKIKFDGAVVIEQGGVKAAESLLISRFLMYPTVYFHHVCRIARKMYERAMERIIEAGFEAENLLEMDDVDAMMLLKEKERETYDRLNNRRLFKRAIYVSRRSLDFREVMRTSERRAEREVAEMAGVDERYVIVDIPPVEEMRESGVMVDTESGLKPLEEVSPLVKALKDAAVENWRLGVYTDRRFVDKVGKAAADYFGIEKVVQKSLDEIFPQ
MGSDKIHHHHHHMELEEIVDSERNIHKTIEVLGKGGQGIVYRCLDKDVAIKVVLRDGDFIKDKESLKQYEKSVLNLSFKPIESHFPMSIPLVTLKEKQGYVMKMAEGYEPLKTFLKKPSILENEEKDGIFRINNAIQELCKDNHYMTLSLSYYSQTQGLRSRLKILTHLAKLLFRLQSKGLVYGDLNLNNVFYKDNSAFLIDADNVRYESEKALCVIFTPNYGALEISQTSKNSDTTNYNTMLSDTFSFAIITYELLNMVHPFDGNKADDSVENFIELPWIEDRKDDSNRSCGLLPFFLTRDLKNLLA
MGSDKIHHHHHHMELIEILLKKLNKNAVVTEIAKDKDPFKVLISTIISARTKDEVTEEVSKKLFKEIKDVDDLLNIDEEKLADLIYPAGFYKNKAKNLKKLAKILKENYNGKVPDSLEELLKLPGVGRKTANLVITLAFNKDGICVDTHVHRICNRWEIVDTETPEETEFELRKKLPKKYWKVINNLLVVFGREICSSKSKCDKCFKEIKEKCPYYEKIKHFENILKKFNFRKVSKNKIPNEKGTYILKIRLKEGKKIKFGKTERFFKKGYYFYIGSAFGNSMNLKNRIERHLKDDKKMHWHIDYLLKYGKIEEIYITNERVECEVANEFIKKFDFVENFGCSDCKCKSHLFYLKP
MGSDKIHHHHHHMENKYLVSIIVPVHNTADYLHKCIESLRSQTLQQIEIILVDNLSVDGSSEICDEYAKIDKRIKVLHLSIAGLSIARNAGMRIASAPYIGFVDSDDYVEPAMFEKMLDAMVQSDAEIAYCNFLLEYEFKPNESPYRNSGDIVIRDPKNVLQDMMMEKVSCSACTKLYKSGFLTSLQFPEGKNYEDRLVMYEWVALCKKVVWVDSPFYHYVERQTSICHTMSPMNLYHYFLAEYARMRFMEKYSLFEEEDLFKIRTRLIGTCLTIFKEILLKVNLREFKEPVKDMRQKMKEIAALPEDTYELKYRRRVRKIAYHWHLYYLTHFLFKKGGDS
MGSDKIHHHHHHMENLGDRLEVVAELSLAPGNITLTPDGRLFLSLHQFYQPEMQVAELTQDGLIPFPPQSGNAIITFDTVLGIKSDGNGIVWMLDNGNQSKSVPKLVAWDTLNNQLSRVIYLPPPITLSNSFVNDLAVDLIHNFVYISDPAPDDKAALIRVDLQTGLAARVLQGYPGIAPEDIDLVIDGVPVQIGQPDGTVIRPHLGVNGIVLDAENEWLYLSPMHSTSMYRIKSADLSNLQLTDAELGSKIERYSEKPICDGISIDKDHNIYVGDLAHSAIGVITSADRAYKLLVTDEKLSWTDSFNFGSDGYLYFDCNQLHHSAPLNAGENISAPPYYIFRLKPLAAGIVGR
MGSDKIHHHHHHMENQDYTVRLTVQASPQEVFKQINRVTAWWTKNLQGDSEKLNDVFTVNFPGMHVSTQKLIECIPDKKVTWMVTDSHLTFIQRKTEWTDTTIQFDISRNVKHTEVLFTHKGLNPAIECYGDCAKGWDYFIKGSLFKLLTEGTGTPE
MGSDKIHHHHHHMENQEKPLSVDEEYDLWKSNVPLMYDFVSETRLTWPSLTVQWLPTPVQELDGGFIKQELIIGTHTSGEEENYLKFAEINLPKEILSNEDPQEEAGEEYQSSLPAPRSNIRITAKYEHEEEITRARYMPQDPNIVATINGQGTVFLYSRSEGLQSTLKFHKDNGYALSFSTLVKGRLLSGSDDHTVALWEVGSGGDPTKPVRTWNDLHSDIINDNKWHNFNKDLFGTVSEDSLLKINDVRANNTTIDTVKCPQPFNTLAFSHHSSNLLAAAGMDSYVYLYDLRNMKEPLHHMSGHEDAVNNLEFSTHVDGVVVSSGSDNRLMMWDLKQIGAEQTPDDAEDGVPELIMVHAGHRSSVNDFDLNPQIPWLVASAEEENILQVWKCSHSLPIVGGPPKVNKDIIS
MGSDKIHHHHHHMENYTHWFYLESYTFLFYSKNQYVIYNTLNSTYIDCSLYGKTINTVLSILHNTNKTYCVGIYEYQLRDSQFTEFIKKIRNTFSGDIIKNIRGIPPFISKPILRILHHPNNPKTKEYNLLGENALFHLHEVTFYLENQGFDLNPMYKDCYKQFLYPTYTEKQKLSHAKYLEIIEQLSICQIDKINIIPATIEKKELFSYLLSLSRQYSIKTQIILPYKKYNKEDLKQLLTNPQFSIMIMVHLPVDYEELNSYINLFNEYNITWSLIASNKNDVIFLSKNNLGKFTNVDYIPWYTGDNMDFFKEYIYNDFKDIIEQKNTKQHIFRKQILNDNLFGKLTIFPTGEVYSNVNFPTIGNIQDQKLSEIVYSEIENYFKPWFFTRDYVSCKNCVNKYLCPSISNYEIVANEYNMCYLNQ
